B1: HDV Ribozyme (parent)
chain: GGCCGGCAUGGUCCCAGCCUCCUCGCUGGCGCCGGCUGGGCAACAUUCCGAGGGGACCGUCCCCUCGGUAAUGGCGAAUGGGACCCA

The variants in this data set derive from B1. Briefly: self-cleavage, relative activity (ratio to wild type); higher = more cleavage; co-transcriptional.
With GGCCGGCAUGGUCCUAGCCUCCUCGCUGGCGCCGGCUGGGCAACAUUCCGAGGGAACCGUCCCCUCGGUAAUGGCGAAUGGGACCCA, the self-cleavage stood at 0.889.

For the variant GGCCGGCAUGGUCCUAGCCUCCUCGCUGGCGCCGGCUGGGCAACAUUCCGAGGGCACCGUCCCCUCGGUAAUGGCGAAUGGGACCCA, the self-cleavage was determined as 0.895.

Turning to GGCCGGCAUGGUCCCCGCCUCCUCGCUGGCGCCGGCUGGGCAACAUUACGAGGGGACCGUCCCCUCGGUAAUGGCGAAUGGGACCCA, the self-cleavage turned out to be 0.987.

Take GGCCGGCAUGGUCCCCGCCUCCUCGCUGGCGCCGGCUGGGCAACAUUCCGAGGGGACCGUCCGCUCGGUAAUGGCGAAUGGGACCCA: the self-cleavage was 0.633.

With GGCCGGCAUGGUCCCCGUCUCCUCGCUGGCGCCGGCUGGGCAACAUUCCGAGGGGACCGUCCCCUCGGUAAUGGCGAAUGGGACCCA, the self-cleavage came out at 0.375.

GGCCGGCAUGGUCCCCGCCUCCUCGCUGGCGCCGGCUGGGCAACAUUCCGAGGGGACCGUCCCCUCGGUAAUGGCGAAUGGGACCCG: the self-cleavage is 0.769.

For GGCCGGCAUGGUCCUAGCCUCCUCGCUGGCGCCGGCUGGGCAACAUUCCGAGGGGACCGUCCCCUCGGUAAUAGCGAAUGGGACCCA, the self-cleavage was 0.302.

For GGCCGGCAUGGUCCUAGCCUCCUCGCUGGCGCCGGCUGGGCAACAUUCCGAGGGGACCGUCCCCUCGGUAAUCGCGAAUGGGACCCA, the self-cleavage amounted to 0.429.

GGCCGGCAUGGUCCUAGCCUCCUCGCUGGCGCCGGCUGGGCAACAUUCCGAGGGGACCGUCCCCUCGGUAAUGGCGAAAGGGACCCA: the self-cleavage was 1.11.

GGCCGGCAUGGUCCUAGCCUCCUCGCUGGCGCCGGCUGGGCAACAUUCCGAGGGGACCGUCCCCUCGGUAAUGGCGAACGGGACCCA: the self-cleavage was determined as 0.849.

In the case of GGCCGGCAUGGUCCCCGCCUCCUCGCUGGCGCCGGCUGGGCAACAUUCCGAGGGGACCCUCCCCUCGGUAAUGGCGAAUGGGACCCA, the self-cleavage was found to be 0.974.

In the case of GGCCGGCAUGGUCCUAGCCUCCUCGCUGGCGCCGGCUGGGCAACAUUCCGAGGGGACCGUCCCCUCGGUAAGGGCGAAUGGGACCCA, the self-cleavage amounted to 0.665.

For GGCCGGCAUGGUCCCCGCCUCCUCGCUGCCGCCGGCUGGGCAACAUUCCGAGGGGACCGUCCCCUCGGUAAUGGCGAAUGGGACCCA, the self-cleavage stood at 0.

Regarding GGCCGGCAUGGUCCCCGCCUCCUCGCUGGCGCCGGCUGGGCAACAUUCCGAGGGGACCGUCCCCUCGGUAAUGGCGAAUGGGAUCCA, the self-cleavage was 0.727.

In the case of GGCCGGCAUGGUCCCCGCCUCCUCCCUGGCGCCGGCUGGGCAACAUUCCGAGGGGACCGUCCCCUCGGUAAUGGCGAAUGGGACCCA, the self-cleavage is 0.

For the variant GGCCGGCAUGGUCCCCGCCUCCUCGCUGGCGCCGGCUGGGCAACAUUCGGAGGGGACCGUCCCCUCGGUAAUGGCGAAUGGGACCCA, the self-cleavage turned out to be 0.923.

For GGCCGGCAUGGUCCCCGCCUCCUCGCUGGCGCCGGCUGGGCAACAUUCUGAGGGGACCGUCCCCUCGGUAAUGGCGAAUGGGACCCA, the self-cleavage was determined as 0.617.

With GGCCGGCAUGGUCCCCGCCUCCUCGCUGGCGCCGGCUGGGCAACAUUCAGAGGGGACCGUCCCCUCGGUAAUGGCGAAUGGGACCCA, the self-cleavage was found to be 0.609.

For GGCCGGCAUGGUCCCCGCCUCCUCGUUGGCGCCGGCUGGGCAACAUUCCGAGGGGACCGUCCCCUCGGUAAUGGCGAAUGGGACCCA, the self-cleavage is 0.886.

Consider GGCCGGCAUGGUCCCCGCCUCCUCGAUGGCGCCGGCUGGGCAACAUUCCGAGGGGACCGUCCCCUCGGUAAUGGCGAAUGGGACCCA, for which the self-cleavage turned out to be 0.831.

On to GGCCGGCAUGGUCCCCGCCUCCUCGCUGGCGCCGGCUGGGCAACAUUCCGAGGGGACCGUCCCCUCGGUAAUGGCGAUUGGGACCCA, for which the self-cleavage is 0.256.

GGCCGGCAUGGUCCCCGCCUCCUCGCUGGCGCCGGCUGGGCAACAUUCCGAGGGGACCGUCCCCUCGGUAAUGGCGACUGGGACCCA: the self-cleavage was determined as 0.166.

For the variant GGCCGGCAUGGUCCCCGCCUCCUCGCUUGCGCCGGCUGGGCAACAUUCCGAGGGGACCGUCCCCUCGGUAAUGGCGAAUGGGACCCA, the self-cleavage was 0.0437.

For the variant GGCCGGCAUGGUCCCCGCCUCCUCGCUGGCGCCGGCUGGGCAACAUUCCGAGAGGACCGUCCCCUCGGUAAUGGCGAAUGGGACCCA, the self-cleavage was determined as 0.674.

For the variant GGCCGGCAUGGUCCCCGCCUCCUCGCUGGCGCCGGCUGGGCAACAUUCCGAGCGGACCGUCCCCUCGGUAAUGGCGAAUGGGACCCA, the self-cleavage was determined as 0.475.

For the variant GGCCGGCAUGGUCCUAGCCUCCUCGCUAGCGCCGGCUGGGCAACAUUCCGAGGGGACCGUCCCCUCGGUAAUGGCGAAUGGGACCCA, the self-cleavage is 0.0692.

In the case of GGCCGGCAUGGUCCUAGCCUCCUCGCUGGCGCCGGCUGGGCAACAUUCCGAGGGGACCGUCCCCUCGGGAAUGGCGAAUGGGACCCA, the self-cleavage was determined as 0.858.

Consider GGCCGGCAUGGUCCCCGCCUCCUCGCUGGCGCCGGCUGGGCAACAUUCCGAGGGGACCGUUCCCUCGGUAAUGGCGAAUGGGACCCA, for which the self-cleavage is 0.798.

GGCCGGCAUGGUCCCCGCCUUCUCGCUGGCGCCGGCUGGGCAACAUUCCGAGGGGACCGUCCCCUCGGUAAUGGCGAAUGGGACCCA: the self-cleavage was 0.199.

For the variant GGCCGGCAUGGUCCCCGCCUGCUCGCUGGCGCCGGCUGGGCAACAUUCCGAGGGGACCGUCCCCUCGGUAAUGGCGAAUGGGACCCA, the self-cleavage was 0.119.

Turning to GGCCGGCAUGGUCCCCGCCUACUCGCUGGCGCCGGCUGGGCAACAUUCCGAGGGGACCGUCCCCUCGGUAAUGGCGAAUGGGACCCA, the self-cleavage is 0.0437.

For GGCCGGCAUGGUCCCCGCCUCCUCGCUGGCGCCGGCUGGGCAACAUUCCUAGGGGACCGUCCCCUCGGUAAUGGCGAAUGGGACCCA, the self-cleavage came out at 0.692.

On to GGCCGGCAUGGUCCCCGCCUCCUCGCUGGCGCCGGCUGGGCAACAUUCCGAGGGGACAGUCCCCUCGGUAAUGGCGAAUGGGACCCA, for which the self-cleavage is 0.582.

Turning to GGCCGGCAUGGUCCCCGCCUCCUCGCUGGCGCCGGCUGGGCAACAUUCCGAGGGGAACGUCCCCUCGGUAAUGGCGAAUGGGACCCA, the self-cleavage is 0.852.

Consider GGCCGGCAUGGUCCCCGCCUCCUCGCUGGCGCCGGCUGGGCAACAUUCCGAGGGGACCGUCCCCUCGGUAAUGGCGAAUGGGGCCCA, for which the self-cleavage stood at 0.877.

Regarding GGCCGGCAUGGUCCCCGCCUCCUCGCUGGCGCCAGCUGGGCAACAUUCCGAGGGGACCGUCCCCUCGGUAAUGGCGAAUGGGACCCA, the self-cleavage was 0.18.

GGCCGGCAUGGUCCUAGCCUCCUCGCUGGCGCCGGCUGGGCAACAUUCCGAGGGGACCGUCCCCUCGGUAAUGGCUAAUGGGACCCA: the self-cleavage came out at 1.2.

Consider GGCCGGCAUGGUCCUAGCCUCCUCGCUGGCCCCGGCUGGGCAACAUUCCGAGGGGACCGUCCCCUCGGUAAUGGCGAAUGGGACCCA, for which the self-cleavage amounted to 0.208.

As to GGCCGGCAUGGUCCUAGCCUCCUCGCUGGCUCCGGCUGGGCAACAUUCCGAGGGGACCGUCCCCUCGGUAAUGGCGAAUGGGACCCA, the self-cleavage was found to be 0.248.

GGCCGGCAUGGUCCCCGCCUCCUCGCUGGCGCCGGCUGGGCCACAUUCCGAGGGGACCGUCCCCUCGGUAAUGGCGAAUGGGACCCA: the self-cleavage was found to be 0.192.

For the variant GGCCGGCAUGGUCCCCGCCUCCUCGCUGGCGCCGGCUGGGCAACAUUCCGAGGGGACCGUCCCCUCGGUAAUGGCGAAUUGGACCCA, the self-cleavage is 0.171.

With GGCCGGCAUGGUCCCCGCCUCCUCGCUGGCGCCGGCUGGGCAACAUUCCGAGGGGACCGUCCCCUCGGUAAUGGCGAAUCGGACCCA, the self-cleavage came out at 0.201.

For GGCCGGCAUGGUCCUAGCCUCCUCGCUGGCGCCGGCUGGGCAACAUUCCGAUGGGACCGUCCCCUCGGUAAUGGCGAAUGGGACCCA, the self-cleavage was determined as 1.21.

For the variant GGCCGGCAUGGUCCUAGCCUCCUCGCUGGCGCCGGCUGGGCAACAUUCCGACGGGACCGUCCCCUCGGUAAUGGCGAAUGGGACCCA, the self-cleavage worked out at 1.03.

Regarding GGCCGGCAUGGUCCCCGCCUCCUCGCUGGCGCCGGCUGGGCAGCAUUCCGAGGGGACCGUCCCCUCGGUAAUGGCGAAUGGGACCCA, the self-cleavage stood at 0.138.

Consider GGCCGGCAUGGUCCCCGCCUCCUCGCUGGCGCCGGCUGGGCAACAUUCCGAGGGGACCGUCCCCUCGGUCAUGGCGAAUGGGACCCA, for which the self-cleavage amounted to 0.731.

As to GGCCGGCAUGGUCCUAGCCUCCUCGCUGACGCCGGCUGGGCAACAUUCCGAGGGGACCGUCCCCUCGGUAAUGGCGAAUGGGACCCA, the self-cleavage worked out at 0.154.

As for GGCCGGCAUGGUCCUAGCCUCCUCGCUGUCGCCGGCUGGGCAACAUUCCGAGGGGACCGUCCCCUCGGUAAUGGCGAAUGGGACCCA, the self-cleavage came to 0.0594.

Take GGCCGGCAUGGUCCUAGCCUCCUCGCUGGCGCCGGCUGGGCAACAUUCCGAGGAGACCGUCCCCUCGGUAAUGGCGAAUGGGACCCA: the self-cleavage was determined as 0.776.

As to GGCCGGCAUGGUCCUAGCCUCCUCGCUGGCGCCGGCUGGGCAACAUUCCGAGGCGACCGUCCCCUCGGUAAUGGCGAAUGGGACCCA, the self-cleavage came to 1.

In the case of GGCCGGCAUGGUCCCCGCCUCCUCGCUGGCGCCGGCUGGGCAACAUUCCGAGGGGACCGUCCCCUCGGUAAUGGAGAAUGGGACCCA, the self-cleavage was 0.133.

Take GGCCGGCAUGGUCCCCGCCUCCUCGCUGGCGCCGGCUGGGCAACAUUCCGAGGGGACCGUCCCCUCGGUAAUGGUGAAUGGGACCCA: the self-cleavage was determined as 0.138.

As to GGCCGGCAUGGUCCCCGCUUCCUCGCUGGCGCCGGCUGGGCAACAUUCCGAGGGGACCGUCCCCUCGGUAAUGGCGAAUGGGACCCA, the self-cleavage is 0.266.

In the case of GGCCGGCAUGGUCCCCGCCUCCUCGCUGGCGCCGGCUGGGCAACAUUCCGAUGGGACCGUCCCCUCGGUAAUGGCGAAUGGGACCCA, the self-cleavage is 0.643.

As to GGCCGGCAUGGUCCCCGCCUCCUCGCUGGCGCCGGCUGGGCAACAUUCCGACGGGACCGUCCCCUCGGUAAUGGCGAAUGGGACCCA, the self-cleavage came out at 1.04.

In the case of GGCCGGCAUGGUCCCCGCCUCCUCGCUGGCGCCGGCUGGGCAACAUUCCGAAGGGACCGUCCCCUCGGUAAUGGCGAAUGGGACCCA, the self-cleavage turned out to be 0.751.

In the case of GGCCGGCAUGGUCCUAGCCUCCUCGCUGGCGCCGGCUGGGCAACAUUCCGAGAGGACCGUCCCCUCGGUAAUGGCGAAUGGGACCCA, the self-cleavage was determined as 0.912.

With GGCCGGCAUGGUCCCCGCCUCCUCGCUGGCCCCGGCUGGGCAACAUUCCGAGGGGACCGUCCCCUCGGUAAUGGCGAAUGGGACCCA, the self-cleavage was found to be 0.0639.

Consider GGCCGGCAUGGUCCUAGCCUCCUCGCUGGCGCCCGCUGGGCAACAUUCCGAGGGGACCGUCCCCUCGGUAAUGGCGAAUGGGACCCA, for which the self-cleavage amounted to 0.268.

As for GGCCGGCAUGGUCCUAGCCUCCUCGCUGGCGCCUGCUGGGCAACAUUCCGAGGGGACCGUCCCCUCGGUAAUGGCGAAUGGGACCCA, the self-cleavage turned out to be 0.293.

On to GGCCGGCAUGGUCCUAGCCUCCUCGCUGGCGCCGGCUGAGCAACAUUCCGAGGGGACCGUCCCCUCGGUAAUGGCGAAUGGGACCCA, for which the self-cleavage was 0.151.

For GGCCGGCAUGGUCCUAGCCUCCUCGCUGGCGCCGGCUGCGCAACAUUCCGAGGGGACCGUCCCCUCGGUAAUGGCGAAUGGGACCCA, the self-cleavage came to 0.0639.

As for GGCCGGCAUGGUCCCCGCCUCGUCGCUGGCGCCGGCUGGGCAACAUUCCGAGGGGACCGUCCCCUCGGUAAUGGCGAAUGGGACCCA, the self-cleavage worked out at 0.0426.

On to GGCCGGCAUGGUCCCCGCCUCCUCGCUGGCGCCGGCUGGGCAACAUUCCGAGGGGACCGUCCCCUCGGUAAUGGCGAAUGGAACCCA, for which the self-cleavage is 0.72.
